Experimental data as given in the nanobody polyreactivity screen of Harvey et al. (2022).

Experiment: yeast display, Sf9 membrane polyspecificity reagent, FACS + sequencing; frameworks hold sequencing errors
Method in brief: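 A synthetic nanobody library was expressed on Saccharomyces cerevisiae BJ5465 by galactose induction for 36–48 hours. The library was stained for 1 hour at 4 °C with 10% biotinylated, detergent-solubilized Sf9 membrane reagent and enriched with streptavidin microbeads before FACS. Low and high (top ~1%) gates were set on anti-HA fluorescence for expression and streptavidin fluorescence for reagent binding, and each polyreactivity label reflects the gate of origin.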

Sequence	polyreactivity (PSR sort gate)
QVQLVESGGGLVQAGGSLRLSCAASGSIFSSYAMGWYRPAPGNERELVAAISKSGGSTYYADSVKGRFTISRDNAKNTVYLQMNSLKPEDTAVYYCAARTRQLEYNSWGQGTQVTVSS	high polyreactivity
QVQLVESGGGLVQAGGSLRLSCAASGSIFSSYAMGWYRQAPGKERALVAGISRRGGSTYYADSVKGRFTISRDNAKNTVYLQMNSLKPEDTAVYYCNARSAGSDLDYWGQGTQVTVSS	high polyreactivity
QVQLVESGGGLVQAGGSLRLSCAASGSIFSSYAMGWYRQAPGKEREFVAAISWGGGSTYYADSVKGRFTISRDNAKNSVYLQMNSLKPEDTAVYYCAVETWLYPYDYWGQGTQVTVSS	high polyreactivity
QVQLVESGGGLVQAGGSLRLSCAASGSIFSSYAMGWYRQAPGKERELVAAISQSGGDTYYADSVKGRFTISRDNAKNTVYLQMNSLKPEDTAVYYCNRDFSLVVHYNFDYWGQGTQVTVSS	low polyreactivity
QVQLVESGGGLVQAGGSLRLSCAASGSIFSSYAMGWYRQAPGKERELVAAISSSGDSTYADSVKGRFTISRDNAKNTVYLQMNSLKPEDTAVYDCAVGGAGSDDYWGQGTQVTVSS	low polyreactivity
QVQLVESGGGLVQAGGSLRLSCAASGSIFSSYAMGWYRQAPGKERELVASISRRGGSTYYADSVKGRFTISRDNAKNTVYLQMNSLKPEDTAVYYCNASGGPYRYYYWGQGTQVTVSS	low polyreactivity
QVQLVESGGGLVQAGGSLRLSCAASGSIFSSYTMGWYRQAPGKERELVASITSGDSTNYADSVKGRFTISRDNAKNTVYLQMNSLKPEDTAVYYCNKSTLGVPVYEVIFEYWGQGTQVTVSS	low polyreactivity
QVQLVESGGGLVQAGGSLRLSCAASGSIFSSYVMGWYRQAPGKERELVAAITFSGATTYYADSVKGRFTISRDNAKNTVYLQMNSLKPEDTAVYYCATKAYTTGRYYWGQGTQVTVSS	high polyreactivity
QVQLVESGGGLVQAGGSLRLSCAASGSIFSTNDMGWYRQAPGKERELVAAISVSGGSTYYADSVKGRFTISRDNAKNTVYLQMNSLKPEDTAVYYCNADYTRGTMYYWGQGTQVTGSS	low polyreactivity
QVQLVESGGGLVQAGGSLRLSCAASGSIFSTYAMGWYRQAPGKERELVAAINRGTSTNYADSVKGRFTISRDNAKNTVYLQMNSLKPEDTAVYYCAAYYRGRYGPRRSEYWGQGTQVTVSS	high polyreactivity
QVQLVESGGGLVQAGGSLRLSCAASGSIFSTYAMGWYRQAPGKERELVAAISTRGGRTYYADSVKGRFTISRDNAKNTVYLQMNSLKPEDTAVYYCAAKRGKTYQRFDYWGQGTQVTVSS	high polyreactivity
QVQLVESGGGLVQAGGSLRLSCAASGSIFSTYARGWYRQAPGKERELVATITSGGNTNYADSVKGRYTISRDNAKNTVYLQMNSLKPEDTAVDYSNKEWDGDGYTDDWDYDYWGQGTQVTVSS	low polyreactivity
QVQLVESGGGLVQAGGSLRLSCAASGSIFSTYTMGWYRQAPGKERELVATIRLRGGSTYYADSVKGRFTISRDNAKNTVYLQMNSLKPEDTAVYYCNKAYRYYQYGYWGQGTQVTVSS	high polyreactivity
QVQLVESGGGLVQAGGSLRLSCAASGSIFSVNAMGWYRQAPGKERELVATITAGGGSTNYADSVKVRFTISRDNAKNTVYLQMNSLKPEDTAVYYCAADYWYVSWYDYWGQGTQVTVSS	low polyreactivity
QVQLVESGGGLVQAGGSLRLSCAASGSIFSVYAMGWYRQAPGKERELVAAIDFSGGSTYYADSVKGRFTISRDNPKNTVYLQMNSLKPEDTAVYYCAAEYLPYPEYEYDYWGQGTQVTVSS	low polyreactivity
QVQLVESGGGLVQAGGSLRLSCAASGSIFSVYAMGWYRQAPGKERELVAAISTRGGSTYYADSVKGRFTISRDNAKNTVYLQMNSLKPEDTAVYYCAKRWPQYTDYKPMYYWGLGTQVTVSS	high polyreactivity
QVQLVESGGGLVQAGGSLRLSCAASGSIFSVYARGWSRQAPGKERELVAAITSGTSTYADSVKGRFTISRDNAKNTVYLQMNSLKPEDTAVYACAAESGSPGYYYWGQGTQVTVSS	low polyreactivity
QVQLVESGGGLVQAGGSLRLSCAASGSIFSWYAMGWYRQAPGKERELVAAISNSGGSTYYADSVKGRFTISRDNAKNTVYLQMNSLKPEDTAVYYCAAYDGDTYDWGQGTQVTVSS	high polyreactivity
QVQLVESGGGLVQAGGSLRLSCAASGSIFSYKTMGWYRQAPGKERELVAAISSDGSTYYADSVKGRFTISRDNAKNTVYLQMNSLKPEDTAVYYCAATYYPYEHYYWGQGTQVTLSS	low polyreactivity
QVQLVESGGGLVQAGGSLRLSCAASGSIFSYNAMGWYRQAPGKERELVAAIDWSGGSTYYADSVKGRFTISRDNAKNTVYLQMNSLKPVDTAVYYCNAVGVFYYSYHYHQYDYWGQGTQVTVSS	low polyreactivity
QVQLVESGGGLVQAGGSLRLSCAASGSIFSYNAMGWYRQATGKERELVARITRGGDGTYYADSVKGRFTISRDNAKNTVYLQMNSLKPEDTAVYYCAATPYWYHLRVEGGYWGQGTQVTVSS	low polyreactivity
QVQLVESGGGLVQAGGSLRLSCAASGSIFSYYAMGWNRQAHGKERELVASITRGGSTYYADSVKGRFTISRDNAKNTVYLQMNSLKPEDSAVYYCAAAARYYSRYDFPNNYWGQVTQVTVSS	low polyreactivity

Sequence	polyreactivity (PSR sort gate)
QVQLVESGGGLVQAGGSLRLSCAASGSIFSYYAMGWYRQAPGKERELVAAITSGGATTYYADSVKGRFTISRDNAKNTVYLQMNSLKPEDTAVYYCAAGYYVYYRWWELDYWGQGTQVTVSS	low polyreactivity
QVQLVESGGGLVQAGGSLRLSCAASGSIFSYYAMGWYRQAPGKERELVAAITTGGGTYYADSVKGRFTISRDNAKNTVYLQMNSLKPEDTAVYYCAKDGYPDQDVQVFNDSDYWGQGTQVTVSS	low polyreactivity
QVQLVESGGGLVQAGGSLRLSCAASGSIFSYYAMGWYRQAPGKERELVATISSGGSTNYADSVKGRFTISRDNAKNTVYLQMNSLKPEDTAVYYCAATIGHNGFDYWGQGTQVTVSS	low polyreactivity
QVQLVESGGGLVQAGGSLRLSCAASGSIFSYYDMGWYRQAPGKERELVAAITTGGSTNYADSVKGRFTISRDNAKNTVYLQMNSLKPEDTAVYYCNAGRWWSRGYGYWGQVTQVTVSS	high polyreactivity
QVQLVESGGGLVQAGGSLRLSCAASGSIFSYYVMGWYRQAPGKERELVAAISYSGGRTYYADSVKGRFTISRDNAKNTVYLQMNSLKQEDTAVYYCARRSYVYPYGYDYWGQGTQVTVSS	high polyreactivity
QVQLVESGGGLVQAGGSLRLSCAASGSIFSYYVMGWYRQAPGKERELVAAITSSGGSTYYADSVKGRFTISRDNAKNTVYLQMNSLKPEDTAVYYCAAYQRSQYRSYPGYEYWGQGTQVTVSS	high polyreactivity
QVQLVESGGGLVQAGGSLRLSCAASGSIFTDNAMGWYRQAPGKERELVAAITGRGGNTYYADSVKGRFPISRDIAKNPVYLQMNSLKPEDTAVYYCAARIFRTRKPLGYWGQGTQVTVSS	high polyreactivity
QVQLVESGGGLVQAGGSLRLSCAASGSIFTDNSMGWYRQAPGKERELVAAIDSVGSTYYADSVKGRFTISRDNAKNTVYLQMNSLKPEDTAVYYCAADLYFPYESYYWGQGTQVTVSS	low polyreactivity
QVQLVESGGGLVQAGGSLRLSCAASGSIFTDYTMGWSRQAPGKERELVAAISWIGDSTDYADSVKGRFTISRDNAKNTVYLQMNSLKPEDTAVYYCAKSRAGRYNDYDYWGQGTQVTVSS	low polyreactivity
QVQLVESGGGLVQAGGSLRLSCAASGSIFTENAMGWYRQAPGKERELVAAIRWDDGNTYYADSVKGRFTISRDNAKNTVYLQMNSLKTEDTAVYYCNADKWSSTDDWLYDYWGQGTQVTVSS	low polyreactivity
QVQLVESGGGLVQAGGSLRLSCAASGSIFTFYAMGWYRQAPGKERELVAAISSGGDTYYADSVKGRFTISRDNAKNTVYLQMNSLKAEDTAVYYCAADWRGSYLYGYYYWGQGTQVTVSS	low polyreactivity
QVQLVESGGGLVQAGGSLRLSCAASGSIFTFYAMGWYRQAPGKERELVAAITTIGGRTYYADSVKGRFTISRDNAKNTVYLQMNSLKPEDTAVYYCAAGYRAWEPYGHYGYWGQGTQVTVSS	high polyreactivity
QVQLVESGGGLVQAGGSLRLSCAASGSIFTFYAMGWYRQAPGKERELVARITNVGNTNYADSVKGRFTISRDNAKNTVYLQMNSLKPEDTAVYYCAARWYWGWTRGDYWGQGTQVTVSS	high polyreactivity
QVQLVESGGGLVQAGGSLRLSCAASGSIFTFYAMGWYRQAPGKEREVVARITNGGNTNYADSGKGRFTISRDNAKNTVYLQMNSLKPEDTEVYYCAARWYWGWTRGDYWGQRTQVTVSS	high polyreactivity
QVQLVESGGGLVQAGGSLRLSCAASGSIFTGNAMGWYRPAPGKERELVAAISSSGGSTYYADSVKGRFTISRDNSKNTVYLQMNSLKPEDTAVYYSAAYNYFLQYDYWGHGTQVTVSS	low polyreactivity
QVQLVESGGGLVQAGGSLRLSCAASGSIFTGNAMGWYRQAPGKERELVAAITQRGGRTYYADSVKGRFTISRDNAKNTVYLQMNSLKPKIPAVYYCNAKWTTLFDYWGQGTQVTVSS	high polyreactivity
QVQLVESGGGLVQAGGSLRLSCAASGSIFTGYAMGWYRQAPGKERELVAAISASGTRTYYADSVKGRFTISRDNAKNTVYLQMNSLKPEDTAVYYCARDSLQVFYPYASDDYWGQGTQVTVSS	low polyreactivity
QVQLVESGGGLVQAGGSLRLSCAASGSIFTGYAMGWYRQAPGKERELVAAISNSGTATYYADSVKGRFTISRDNAKNTVYLQMNSLKPEDSAVYYCNTVGHRWLSDDDYWGQGTQVTVSS	low polyreactivity
QVQLVESGGGLVQAGGSLRLSCAASGSIFTGYAMGWYRQAPGKERELVAAISRSSGSTYYADSVKGRFTISRDNAKNTVYLQMNSLIPEDTAVYYCNAYSKYRSGRLYWMGYWGQGTQVTVSS	low polyreactivity
QVQLVESGGGLVQAGGSLRLSCAASGSIFTGYAMGWYRQAPGKERELVAAISWSGGSTSYADSVKGRFTISLDKAKNDVYLQMNSLKPEDTAVYYCAAERKARTYGYWGQGTEVTVSS	high polyreactivity
QVQLVESGGGLVQAGGSLRLSCAASGSIFTHNAMGSYRQAPGKERELVAAISSGGSTNYADSVKGRFTISRDNAMNTVYLQMNSLKPDDTAVYYCAISIDGWYWRRRRYDYWGQGTQVTVSS	low polyreactivity
